Reference: patent US20110293618A1 (MEDICAL AND BIOLOGICAL LABORATORIES, published 2011)

What was measured:
Test in all cases: ELISA on purified E. coli fragment
[1] = target: T1, E. coli-produced recombinant protein corresponding to aa 195-aa 461 in SEQ ID NO: 2 (human, UniProt Q96PD2 195-461)
T1 construct: pET28a expression system; vector-encoded tag residues not described
T1 sequence: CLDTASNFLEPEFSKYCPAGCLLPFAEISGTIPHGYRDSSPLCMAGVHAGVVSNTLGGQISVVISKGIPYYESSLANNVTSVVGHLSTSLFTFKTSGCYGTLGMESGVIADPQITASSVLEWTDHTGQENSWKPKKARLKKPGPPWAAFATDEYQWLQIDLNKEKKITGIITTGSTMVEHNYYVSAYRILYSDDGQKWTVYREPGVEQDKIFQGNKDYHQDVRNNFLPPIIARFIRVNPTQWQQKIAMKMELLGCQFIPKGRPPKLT
Description: (§1) Each antibody was assayed by ELISA using the purified proteins prepared described above.

[2] = target: T2, E. coli-produced recombinant protein corresponding to aa 195-aa 453 in SEQ ID NO: 2 (human, UniProt Q96PD2 195-453)
T2 construct: pET28a, BL21, urea-solubilised, TALON-purified; vector-encoded tag residues not described
T2 sequence: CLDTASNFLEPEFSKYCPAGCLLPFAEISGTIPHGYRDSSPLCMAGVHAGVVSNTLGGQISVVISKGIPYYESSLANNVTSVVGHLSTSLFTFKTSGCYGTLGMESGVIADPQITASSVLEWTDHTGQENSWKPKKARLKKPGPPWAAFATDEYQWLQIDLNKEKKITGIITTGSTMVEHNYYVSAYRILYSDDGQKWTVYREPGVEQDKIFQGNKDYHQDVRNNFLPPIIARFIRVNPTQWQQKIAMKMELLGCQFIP
Description: as §1

[3] = target: T3, E. coli-produced recombinant protein corresponding to aa 195-aa 457 in SEQ ID NO: 2 (human, UniProt Q96PD2 195-457)
T3 construct: pET28a expression system; vector-encoded tag residues not described
T3 sequence: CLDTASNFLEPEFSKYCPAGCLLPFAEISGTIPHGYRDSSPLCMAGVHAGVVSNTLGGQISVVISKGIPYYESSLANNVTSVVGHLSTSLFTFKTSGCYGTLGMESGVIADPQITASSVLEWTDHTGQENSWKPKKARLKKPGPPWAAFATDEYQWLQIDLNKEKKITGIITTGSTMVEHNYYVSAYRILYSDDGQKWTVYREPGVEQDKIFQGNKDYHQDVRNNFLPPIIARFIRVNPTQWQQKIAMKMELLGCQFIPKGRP
Description: as §1

[4] = target: T4, E. coli-produced recombinant protein corresponding to aa 195-aa 465 in SEQ ID NO: 2 (human, UniProt Q96PD2 195-465)
T4 construct: pET28a expression system; vector-encoded tag residues not described
T4 sequence: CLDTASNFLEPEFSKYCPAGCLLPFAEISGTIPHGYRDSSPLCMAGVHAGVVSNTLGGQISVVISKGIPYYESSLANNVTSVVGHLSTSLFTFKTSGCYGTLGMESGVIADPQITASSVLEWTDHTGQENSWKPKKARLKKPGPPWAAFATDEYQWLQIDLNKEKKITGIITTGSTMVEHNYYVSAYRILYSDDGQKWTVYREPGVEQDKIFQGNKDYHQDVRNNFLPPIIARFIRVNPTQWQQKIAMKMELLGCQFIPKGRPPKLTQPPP
Description: as §1

Measured: binding result

B1: FA19-1 (antibody, V domains shown)
VH: EVQLQQSGPELVKPGASVKMSCKASGYTFTTYIMHWVKQKPGQGLEWIGYINPYNDGTKYNEKFKGEATLTSDKSSSTAYMELSSLTSEDSAVYYCARGANYYGSNYNWSFDVWGAGTTVTVSS
VL: DIQMTQSPSSLSASLGGKVTITCRASQDINKYIAWYQHKPGKGPRLLIHHTCTLQPGIPSRFSGSGSGRDYSFSISNLEPEDIATYYCLQYDYLWTFGGGTKL
notes: Mouse monoclonal; also called antibody No. FA19-1; Antibody 2
no binding: all assays above
